Experimental data: article PMC5834214 (PLoS Pathogens, 2018)

Columns and labels:
[1] = target: LCMV NP (Strep-NP) (Lymphocytic choriomeningitis virus, UniProt P09992)
[2] = target: eGFP (Aequorea victoria, UniProt P42212, F64L/H231L/S65T)

Chain of LCMV NP (Strep-NP) (P09992 whole entry): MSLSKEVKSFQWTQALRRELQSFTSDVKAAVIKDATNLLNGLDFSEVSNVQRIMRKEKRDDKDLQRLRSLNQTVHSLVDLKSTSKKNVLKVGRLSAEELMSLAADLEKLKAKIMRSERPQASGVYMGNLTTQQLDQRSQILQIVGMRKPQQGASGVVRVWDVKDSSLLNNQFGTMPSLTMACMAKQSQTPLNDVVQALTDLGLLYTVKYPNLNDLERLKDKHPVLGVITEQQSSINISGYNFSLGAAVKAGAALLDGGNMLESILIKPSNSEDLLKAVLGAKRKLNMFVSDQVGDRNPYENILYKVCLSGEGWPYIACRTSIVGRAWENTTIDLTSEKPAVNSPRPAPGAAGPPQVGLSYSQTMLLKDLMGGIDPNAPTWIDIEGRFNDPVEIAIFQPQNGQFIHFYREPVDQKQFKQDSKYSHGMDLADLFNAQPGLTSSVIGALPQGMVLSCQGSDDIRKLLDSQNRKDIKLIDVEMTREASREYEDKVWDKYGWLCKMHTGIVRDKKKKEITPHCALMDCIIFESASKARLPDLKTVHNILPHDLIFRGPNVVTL

B1: HNRNPC (protein, UniProt P07910 2-306, looked up)
Heterogeneous nuclear …: ASNVTNKTDPRSMNSRVFIGNLNTLVVKKSDVEAIFSKYGKIVGCSVHKGFAFVQYVNERNARAAVAGEDGRMIAGQVLDINLAAEPKVNRGKAGVKRSAAEMYGSVTEHPSPSPLLSSSFDLDYDFQRDYYDRMYSYPARVPPPPPIARAVVPSKRQRVSGNTSRRGKSGFNSKSGQRGSSKSGKLKGDDLQAIKKELTQIKQKVDSLLENLEKIEKEQSKQAVEMKNDKSEEEQSSSSVKKDETNVKMESEGGADDSAEEGDLLDDDDNEDRGDDQLELIKDDEKEAEEGEDDRDSANGEDDS
For B1, the “Spectral count NP Average” value [1] was 4.5, the “Spectral count NP Exp. 1” value [1] was 4 and the “Spectral count NP Exp. 2” value [1] was 5. The “Spectral count eGFP Average” value [2] was 0, the “Spectral count eGFP Exp. 1” value [2] was 0 and the “Spectral count eGFP Exp. 2” value [2] was 0.
